Test results taken from patent publication US20250084176A1 (F STAR BETA, published 2025).

Legend:
[1] = target: mouse CD40 (mouse, UniProt P27512 24-193, limits assumed, biotinylated (EZ-Link Sulfo-NHS-SS-Biotin)); experiment: BLI (Octet QKe), biotinylated receptor on streptavidin sensors
Method: (§1) The specificity of the anti-mouse CD137 Fcabs for mouse CD137 was tested in HeID1.3 “mock” mAb² format and measured by BLI in an Octet QKe system by testing for binding of the Fcabs to other mouse TNFRSF receptors (CD40, OX40, GITR). […] Anti-mouse CD137 Fcabs in mock mAb² format were diluted 1:1 in kinetic buffer (PALL 18-1092) to a final concentration of at least 1 μM. Antigen-coated sensors were dipped into the mAb² solutions for 180 seconds followed by 180 seconds in 1× kinetic buffer. Antibodies for each of the TNFRSF receptors were used as positive controls.

[2] = target: T1, mouse GITR (mouse, UniProt O35714 20-153, limits assumed, biotinylated (EZ-Link Sulfo-NHS-SS-Biotin)); experiment: as above
T1 sequence (looked up): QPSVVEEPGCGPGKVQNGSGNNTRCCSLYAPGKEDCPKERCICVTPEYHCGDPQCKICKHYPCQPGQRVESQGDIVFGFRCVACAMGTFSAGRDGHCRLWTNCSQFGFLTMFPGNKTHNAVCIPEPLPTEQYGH
Method: as §1

[3] = target: T2, mouse CD137, full length, on cells (mouse, UniProt P20334 24-256); experiment: cell-based or functional assay
[4] = target: T2, mouse CD137, full length, on cells; experiment: cell-based or functional assay; remark: listed apart in the source

Sequence of mouse CD40 (P27512 24-193 limits assumed): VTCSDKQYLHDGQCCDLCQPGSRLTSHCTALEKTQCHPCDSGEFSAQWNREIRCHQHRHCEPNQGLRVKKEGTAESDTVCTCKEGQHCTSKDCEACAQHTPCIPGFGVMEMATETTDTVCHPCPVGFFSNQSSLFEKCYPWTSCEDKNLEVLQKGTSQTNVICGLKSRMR

B1: FS22m-063/HelD1.3 (bispecific antibody, human IgG1, kappa)
heavy: QVQLQESGPGLVRPSQTLSLTCTVSGSTFSGYGVNWVRQPPGRGLEWIGMIWGDGNTDYNSALKSRVTMLVDTSKNQFSLRLSSVTAADTAVYYCARERDYRLDYWGQGSLVTVSSASTKGPSVFPLAPSSKSTSGGTAALGCLVKDYFPEPVTVSWNSGALTSGVHTFPAVLQSSGLYSLSSVVTVPSSSLGTQTYICNVNHKPSNTKVDKKVEPKSCDKTHTCPPCPAPELLGGPSVFLFPPKPKDTLMISRTPEVTCVVVDVSHEDPEVKFNWYVDGVEVHNAKTKPREEQYNSTYRVVSVLTVLHQDWLNGKEYKCKVSNKALPAPIEKTISKAKGQPREPQVYTLPPSRDEPYWSYVSLTCLVKGFYPSDIAVEWESNGQPENNYKTTPPVLDSDGSFFLYSKLTVMNYRWELGNVFSCSVMHEALHNHYTQKSLSLSPG
light: DIQMTQSPASLSASVGETVTITCRASGNIHNYLAWYQQKQGKSPQLLVYNAKTLADGVPSRFSGSGSGTQYSLKINSLQPEDFGSYYCQHFWSTPRTFGGGTKLEIKRTVAAPSVFIFPPSDEQLKSGTASVVCLLNNFYPREAKVQWKVDNALQSGNSQESVTEQDSKDSTYSLSSTLTLSKADYEKHKVYACEVTHQGLSSPVTKSFNRGEC
notes: also called FS22m-063 in HeID1.3 mock mAb^2 format
binding result [1]: no binding (tested: at least 1 µM) | binding result [2]: no binding (tested: at least 1 µM) | NF-kB luciferase reporter (HEK.FRT.luc.mCD137), Protein L crosslinked: EC50 [3]: 1.44 nM | NF-kB luciferase reporter (HEK.FRT.luc.mCD137): fold-change in activity upon crosslinking [3]: 27 fold | IL-2 release, mouse CD137 DO11.10 T cell activation assay, Protein L: +XL EC50 [4]: 0.39 nM | IL-2 release, mouse CD137 DO11.10 T cell activation assay, Protein L: +XL Emax [4]: 24200 pg/mL
